Experimental data taken from the supplement of paper PMC9170038.

Each sequence was assayed on K4 kissing-loop RNA reporter (assay: apparent KD of K4 kissing-loop reporter; higher = weaker reporter binding). Settings: Eterna round: R107; input ligand: arginine 13.2 mM.
Description: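 RNA-MaP round R107: designed RNA switches with theophylline, tryptophan, arginine or FMN aptamers are transcribed on-chip within common flanks. They are titrated with a labelled K4 kissing-loop RNA reporter in RNA-MaP buffer (100 mM Tris pH 7.5, 80 mM KCl, 4 mM MgCl2), without ligand or with the indicated ligand. Median apparent KD per design.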
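Note: bound reporter read as fluorescence of individual clusters on recovered sequencing chips by microscopy, with normalized cluster intensities fitted with a binding model.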

Row | Sequence | apparent KD of K4 kissing-loop reporter [nM]
1 | UAGUCAUACAGAGGAUAUCGUAUGAGUGAUGUUCAUAUGCGUACAUCAACUUGAUGUACACCUAGACGAGAAGGCUGUAUGACUA [FMB B SS t6a] | 199
2 | UGAUAGGACAGAAGGAGCGGAAGUGAUGUUUCCAAAAGGAGAGGUCGACAAAGUCGACCCUUCCAGGUAGGUCGCUGUCCUAUCU [ArgBX 10 #Palindromic #SwitchBubble #StaticStem] | 83.5
3 | GCGUGCCAUGCAGGAUAUAGUUGUUCGAGUGAUGUUCGAGCCUUGCUAAGUUCGGAGCAUCAGCUUCUAGAAGGGCAUGGCACGC | 205
4 | UUCUGCAUCUCGGCCGCCACUCACUAGUGAUGUUAGUAAGGAGCGACUAGAAAAGUCCAGUUAAUGAGGACCGGGAGAAGCUCUU [Exclusion Tryptophan B GF 1] | 298
5 | AGGGCUGAGAGCGAUACCAGCGGUAACUGUAUGGUCCAAUAGAGUGAUGUUUUAUAGAGCCGCCCUUGGCAGCGCAAUCUAUUAG [XTheo-B5] | 65.5
6 | AUCUUGUUUGGAGGAUAUUCUUUAUUCGACAUAACCUUCUAUAAGGUGCAGUGAUGUUGCAAUAUAGGAGAAGGUCGAGUGAGAU [Exclusion FMN B GF 17] | 174
7 | UAAGAAUAAGUAGCAGUGAUGUUGCUACUGCGAGGACCGGUACGGCCGCCACUCGAGUCCUCGAAGCGUCACUGAACGAGGAAUA [whbob_SS_Tryp_A_m13] | 283
8 | UGUCAUUGGUCUGAUACCAGAAGAAAUCUGGAGUGAUGUUCCAAGUACGACAAAAGUCGCUUCCCUUGGCAGCAGACCGAUGACU [TheoBS 21 #SwitchBubble 13 #StaticStem] | 510
9 | GCUAGGCAUGCAGGAUAUCGUGGAGUGAUGUUCCGUUGGCUGCUAGCGGAAAACGCUAGCAGCCUACGAGAAGGGCAUGCCUAGC | 356
10 | UAACUUGCAGUGAUGUUGCAAGAACUGGAUACCAGCAUGGAAACAUGCCCUUGGCAGCCAGAAGCUGGCUGCUUGUAAUGUCAGC [Design6] | 158
11 | CCUUCUCUUGGUAGUGAUGUUAUCAAGGACAAGGAUAUCAUCUCAAUGAGAAGGUGUCCUUGAUAACAUGGAGGUCUGAAACAGA [Omei KL FMN A Exc C v8] | 352
12 | CGCCGCAAGGCGAGCGCUCCCACUCCGGAAGGAGCGCCCGCAAGGGCAGGUAGGUCGCCGGAGUGAUGUUCCGGUGGAGGGCUCG [#2 Exclusion - Arginine A Attempt #15 (Inspired by Omei)] | 207
13 | UGUCAUUGGUCGGCCGCCACUUCAUAAAGAGUGAUGUUCUAAAAGACGGAUCGAAAGAUCUGUCGAAGGACCGGGAUCGAUGACU [FiskerMod 11 - Jieux - Same State - Tryptophan B] | 559
14 | AAAUUGUUUAGAGGAUAUUCUUUAUUCGACAUAACCUUCUAUAAGGUGCAGUGAUGUUGCAAUAUAGGAGAAGGCUGAGCGAUAA [Exclusion FMN B Gf 14] | 177
15 | CGCAGUGAUGUUGCGAGUAGCUACAGGGAAGGAGCGUGCUAGAGCACAGGUAGGUCGCCCACGCAGUGAUGUUGUGUCAAAGGGU [Exclusion Arginine A GF 11] | 168
16 | UCUGCUGUAUAUGAUACCAGCAGUGAGAGACCAGAAGUAUAGUGAUGUUAUAUGAGAGAAUGCCCUUGGCAGCGUGUGCGGGUGG [SSTheophylB.Z] | 87.6

Row | Sequence | apparent KD of K4 kissing-loop reporter [nM]
17 | AGACCUCAGUGAUGUUGAGGUAACACUGAUACCAGCGACUUGAUUCGCCCUUGGCAGCAGUCCACCGAGGUAUCUGAUCAGGUCA [#25 K4 Theophylline A Exclusion] | 158
18 | GCGCGCGGCGGAGGAUAUAGCAGGUGAUCCGAGAAAGUGAGUGAUGUUUACGGAGAUGAUGAUAUGUUAGAAGGCCGCCGCGCGC [abcdefghijklmnopqrstuv] | 416
19 | GCAAAACUCAGUGAUGUUGAGAUAUCGGAAGGAGCGCGUGAAAACGCAGGUAGGUCGCCGAUUCAAUGAGUUUCUCGUUGUUUGC [Arginine A K4 20] | 305
20 | ACCCGGGCCCGAAAGGGCCCGGGAAGAGAUACCAGCAGCGAAAGCUGCCCUUGGCAGCUCACUUAGUGAUGUUGAGUAUAGGGUA [#22 K4 Theophylline A Same State] | 463
21 | UGUACCGAGUCAGGAUAUGGCGUCGAAAGACGAAACCAGUGAUGUUGGAAUCGAUCGAAAGAUCGUCCAGAAGGGACUUGGUACU [FmnBS 21 #SwitchBubble #StaticStem #DoubleMagnetSystem] | 382
22 | AAACAUAAGUCUGAUACCAGCCUGGGAGAAGUGAUGUUUCUCGGUGCAUAACGCCUAUAAGGCCCUUGGCAGCAGCAUGCGCUUC [theeternabot_sameState_KL_Theo_B_10] | 485
23 | UAUUCUGUUCGAAAGAACGGAAUUUCGGAAGGAGCGCGAGAAAUCGCAGGUAGGUCGCCGAAAUUAUUAGGUAGUGAUGUUACCU [Arginine A K4 6] | 99.8
24 | AUUAAUUUCAGAGGAUAUGCUUUAUUAUUAUUUUUAAAUAAUAAAUGCAGUGAUGUUGCUUAUUAUGCAGAAGGCUGAUUUAUAA [JR_SSFMNB_Sub014] | 625
25 | UUUGCAAAGUCGGCCGCCACUCCGGGCCCUAUAAAUGGGCGCAGUGAUGUUGCGGCUAGGCCUCUGAGGACCGGGACUUUGUAAA [Inusleve] | 52.1
26 | GCCUGUGCACGAAGGAGCGCCGUGACAGGUUACUGCCUUGGGCAGUGAUGUUGCUCAAUCUGGCAGGUAGGUCGCGUGCACAGGC | 145
27 | GCCUUUGUACAGUCCGUUUGUCAUGUGGAUACCAGCAGGAUAGCUUGCCCUUGGCAGCCAUCCAUUUAAUGUAGUGAUGUUACGC [theeternabot_exclusion_KL_Theo_A_13] | 440
28 | AUUUAGACGAGUGAUGUUCGUGUUAUUACAGAGGAUAUGCGUAAUUGCAGAAGGCUGUAUUUAUAUAUGUUAUGUAAUUUUAAAA [JR_ExcFMNA_Sub007] | 108
29 | CCGGCCCGGCCGGAUACCAGUGCGCCGCUGUGAACUGCGGGCCCAGAGUGAUGUUCGGGACACCCUUGGCAGCCGCCUGGGUCGC [#2 Same State - Theophylline B Attempt #26 (HarryS)] | 380
30 | GACUCAUGUAGAAGGAGCGUCAGAAGUUAUAGACAUGAGUGAUGUUCAUGUUAGCUGAUUUGACAGGUAGGUCGCUACAGCAGGA [KL-SSArg B16 #analogue] | 100
31 | UGGCAAGUGAUGUUUGCGUUUCCGCAGGAUACCAGUCUGUCUUGAGACCCUUGGCAGCCUGGGUACAGUCCAAGCGGUCACACGA [theeternabot_exclusion_KL_Theo_A_38] | 297
32 | UGGAGUUGACGAAAAGUCAACUCCUGAGAAGGAGCGGACGAAAGUCCAGGUAGGUCGCUCACUACCAGUGAUGUUGGUACUGAAA | 228

Same assay, conditions: Eterna round: R107; input ligand: none

Row | Sequence | apparent KD of K4 kissing-loop reporter [nM]
33 | UUCUAAAUGUCUGAUACCAGAGAAAAUAUAUGUAGUGAUGUUAUAUACAAAUUUAAUAAGCUCCCUUGGCAGCAGUAUGAAUUUU [AstrosExc-TheB#13] | 949
34 | AGCCGAAAGGCGAGUGCUGUCGCUCCGGAAGGAGCGCAGGAAACUGCAGGUAGGUCGCCGGAGUGAUGUUUUGGUGCAGCACUCA [Omei KL Arginine A Exc B v7] | 129
35 | UCCUGCAAUCUGCCACGAAAGUGGAUUGAUACCAGAGUCGAAAGACUCCCUUGGCAGCGAGUGAUGUUCGUUGCAGGUAAAUAAA [MatMod 7 - Jieux - Exclusion - Theophylline A] | 175
36 | AUUCGUUUAUGUGAUACCAGACUUUGCAGUGAUGUUGCAUUAAUUUUUGAUUAUUAGUUUGUCCCUUGGCAGCACUAUUUAUUUA [JR_SSTheophyB_Sub004] | 44.8
37 | UCGAACGAUGGAAGGAGCGCUCGUCAGUCCUGCGAGUGAUGUUCGUGGGUAAAUAGUCGCGAGCAGGUAGGUCGCCAUCUUGAGC [Indiermaar] | 131
38 | UUCAGGUGUUCGGCCGCCACUCCAGUGAUGUUGGAGUGGCUUCACAAGGGCCAGGACAAUGUAAGGAGGACCGGGAAUAUCGCAG [Quonerar] | 123
39 | CCUAUCUCAUACGAUACCAGUCAAAAUAUAAUUAACCAGUGAUGUUGGAUUUACCAAGGAGACCCUUGGCAGCGUAUGGGAUAGG [Ex Theophylline B K4 18] | 410
40 | UCCUGCAAUCCGCCACGAAAGUGGAUGGAUACCAGAGUCGAAAGACUCCCUUGGCAGCCAGUGAUGUUGGAAGCAGGUAAAUAAA | 715
41 | AAUUUAUGAUCUGAUACCAGACUUUAUCUUGUUUAUAAGUCAAGUGAUGUUUGACUAUUAGUCCCUUGGCAGCAGUAUUGUUUAA [#17 K4 Theophylline B Same State] | 290
42 | GGAUAGGACUGAGGAUAUGGGCUAGGCAAGAAUAACUUGUCUAGCAAAUCCAUGAGGAGUGAUGUUCCAGAAGGCGGUCCUAUCG [FmnBX 1 U10+G76] | 131
43 | UAGUCAUACAGAGGAUAUCGUAUGAGUGAUGUUCAUAUGCGUACAUCAACUUGAUGUACACCUAGACGAGAAGGCUGUAUGACUA [FMB B SS t6a] | 252
44 | UGAUAGGACAGAAGGAGCGGAAGUGAUGUUUCCAAAAGGAGAGGUCGACAAAGUCGACCCUUCCAGGUAGGUCGCUGUCCUAUCU [ArgBX 10 #Palindromic #SwitchBubble #StaticStem] | 79.1
45 | GCGUGCCAUGCAGGAUAUAGUUGUUCGAGUGAUGUUCGAGCCUUGCUAAGUUCGGAGCAUCAGCUUCUAGAAGGGCAUGGCACGC | 618
46 | UUCUGCAUCUCGGCCGCCACUCACUAGUGAUGUUAGUAAGGAGCGACUAGAAAAGUCCAGUUAAUGAGGACCGGGAGAAGCUCUU [Exclusion Tryptophan B GF 1] | 312
47 | AGGGCUGAGAGCGAUACCAGCGGUAACUGUAUGGUCCAAUAGAGUGAUGUUUUAUAGAGCCGCCCUUGGCAGCGCAAUCUAUUAG [XTheo-B5] | 424
48 | AUCUUGUUUGGAGGAUAUUCUUUAUUCGACAUAACCUUCUAUAAGGUGCAGUGAUGUUGCAAUAUAGGAGAAGGUCGAGUGAGAU [Exclusion FMN B GF 17] | 188
49 | UAAGAAUAAGUAGCAGUGAUGUUGCUACUGCGAGGACCGGUACGGCCGCCACUCGAGUCCUCGAAGCGUCACUGAACGAGGAAUA [whbob_SS_Tryp_A_m13] | 328
50 | UGUCAUUGGUCUGAUACCAGAAGAAAUCUGGAGUGAUGUUCCAAGUACGACAAAAGUCGCUUCCCUUGGCAGCAGACCGAUGACU [TheoBS 21 #SwitchBubble 13 #StaticStem] | 638
51 | GCUAGGCAUGCAGGAUAUCGUGGAGUGAUGUUCCGUUGGCUGCUAGCGGAAAACGCUAGCAGCCUACGAGAAGGGCAUGCCUAGC | 425
52 | UAACUUGCAGUGAUGUUGCAAGAACUGGAUACCAGCAUGGAAACAUGCCCUUGGCAGCCAGAAGCUGGCUGCUUGUAAUGUCAGC [Design6] | 170
53 | CCUUCUCUUGGUAGUGAUGUUAUCAAGGACAAGGAUAUCAUCUCAAUGAGAAGGUGUCCUUGAUAACAUGGAGGUCUGAAACAGA [Omei KL FMN A Exc C v8] | 174
